Data on seven substances can be found in PMC12334862.

Assay [1] addresses His6-tagged dimerization-deficient rat gephyrin variant (G483D, S505F), trimers (ddGephT) (rat). The assay is described as follows: SEC; single proteins: preparative Superdex 200 16/60 after Ni-NTA and analytical Superose 6 increase; molecular weights by comparison to standard proteins; oligomeric state of the protein with itself. For orientation: In gel filtration, larger molecules generally elute earlier.

The target in assay [2] is His6-tagged rat gephyrin P1, wild type, high oligomers (GephHO) (rat). The assay is described as follows: SEC; as a1 with 1.5 nmol of the respective PIP (10 mol% in POPC) or POPC alone in DDM micelles added; SEC buffer with 0.01% DDM; height of the > 5 MDa void peak P1 at 280 nm.
In assay [3] the target is His6-tagged rat gephyrin E-domain, wild type (WT-GephE) (rat). The assay can be described thus: mass photometry; Refeyn TwoMP; 5 nM final in 25 mM Tris/HCl pH 7.5, 150 mM NaCl, 5 mM β-mercaptoethanol, 1% glycerol; 60 s.
Assay [4] deals with His6-tagged rat gephyrin P1, wild type, high oligomers (GephHO) (rat). The assay is described as follows: SEC; single proteins: preparative Superdex 200 16/60 after Ni-NTA and analytical Superose 6 increase; molecular weights by comparison to standard proteins; oligomeric state of the protein with itself.
For assay [5], the target named is His6-tagged rat gephyrin P1, wild type, trimers (GephT) (rat). The description is as above.
The target of assay [6] is collybistin CB2SH3+ (Rattus norvegicus) (UniProt Q9QX73). The assay is described as follows: FRET. The settings on record: cited from earlier work.
Chain of collybistin CB2SH3+ (Rattus norvegicus) (Q9QX73 whole entry): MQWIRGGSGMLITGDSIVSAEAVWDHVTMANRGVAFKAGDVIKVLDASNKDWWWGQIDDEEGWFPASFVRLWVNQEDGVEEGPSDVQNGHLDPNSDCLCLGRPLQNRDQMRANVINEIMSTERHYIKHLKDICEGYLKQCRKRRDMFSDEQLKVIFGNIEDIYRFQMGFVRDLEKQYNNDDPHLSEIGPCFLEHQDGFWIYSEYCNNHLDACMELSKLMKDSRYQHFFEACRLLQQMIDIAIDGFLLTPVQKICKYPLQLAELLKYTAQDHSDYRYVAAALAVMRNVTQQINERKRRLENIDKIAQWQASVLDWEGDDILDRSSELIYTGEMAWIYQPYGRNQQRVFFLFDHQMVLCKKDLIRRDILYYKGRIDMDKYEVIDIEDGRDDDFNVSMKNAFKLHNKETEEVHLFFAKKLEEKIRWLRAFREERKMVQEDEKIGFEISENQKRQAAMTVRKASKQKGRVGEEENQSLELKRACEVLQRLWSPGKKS
Assay [7] concerns the target gephyrin from pig brain (pig (endogenous in pig brain tissue)). The assay is described as follows: native gel or EMSA; blue native PAGE (4%-16%) of the cytosol fraction of pig brain, western blot for gephyrin.

Chain of gephyrin E-domain (Q03555 326-768): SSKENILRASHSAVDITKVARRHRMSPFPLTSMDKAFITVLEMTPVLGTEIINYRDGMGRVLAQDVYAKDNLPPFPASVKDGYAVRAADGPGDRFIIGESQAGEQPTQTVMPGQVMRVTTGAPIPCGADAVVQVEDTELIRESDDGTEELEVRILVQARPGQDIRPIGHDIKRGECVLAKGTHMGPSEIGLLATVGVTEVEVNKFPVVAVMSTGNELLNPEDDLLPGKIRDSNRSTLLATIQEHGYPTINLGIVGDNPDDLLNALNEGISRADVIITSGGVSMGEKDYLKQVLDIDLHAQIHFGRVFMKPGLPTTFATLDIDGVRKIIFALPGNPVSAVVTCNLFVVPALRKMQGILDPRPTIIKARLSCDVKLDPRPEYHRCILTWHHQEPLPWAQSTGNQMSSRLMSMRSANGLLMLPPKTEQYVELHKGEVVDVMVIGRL

In assay [1], “His6-tagged dimerization-deficient rat gephyrin variant (G483D, S505F), trimers (ddGephT) (natural protein)” showed a stoichiometry N of 3.

With “His6-tagged rat collybistin isoform 2 lacking the SH3 domain (CB2_(SH3-)) (natural protein)”, in assay [2], the P1 (> 5 MDa complex peak) absorption at 280 nm with PI(3,4)P2 was 344 mAU, the P1 (> 5 MDa complex peak) absorption at 280 nm with PI(3,4,5)P3 was found to be 378 mAU, the P1 (> 5 MDa complex peak) absorption at 280 nm with PI(4,5)P2 worked out at 255 mAU and the P1 (> 5 MDa complex peak) absorption at 280 nm with POPC is 148 mAU. Also, in assay [2], the increase of the CB2SH3- band share within P1 with PI(3,4,5)P3 against the POPC control amounted to 22% and the increase of the GephHO band share within P1 with PI(3,4,5)P3 against the POPC control came out at 21%.

The substance “His6-tagged rat gephyrin E-domain, wild type (WT-GephE) (domain or fragment)” showed a stoichiometry N in assay [3] of 2.

With “His6-tagged rat gephyrin P1, wild type, high oligomers (GephHO) (natural protein)”, the stoichiometry N in assay [4] was 12.

For “His6-tagged rat gephyrin P1, wild type, trimers (GephT) (natural protein)”, the stoichiometry N in assay [5] was determined as 3.

Turning to gephyrin E-domain (from UniProt Q03555), the dissociation constant Kd in assay [6] was 6.3 µM.

In assay [7], “gephyrin from pig brain (natural protein)” gave a stoichiometry N of 3.

The term stoichiometry N denotes a count of units in the complex or per binding partner. By Kd is commonly meant the concentration at which binding is half-saturated.
